Measured values reported in patent publication US20160263137A1.

Experiments:
[1] = target: death receptor (DR) on the plasma membrane of MDA-MB-231 cells; experiment: fluorescence of cell-associated r-TRAIL on MDA-MB-231 cells, 4 C (membrane only) against 37 C (membrane plus internalised), r-TRAIL-Gelipo 0.2 ug/mL after HAase treatment
[2] = target: death receptor (DR) on the plasma membrane of MDA-MB-231 cells; experiment: cell-based or functional assay

Substance: rhodamine-labeled TRAIL (His-ILZ-TRAIL, residues 114-281, labelled with rhodamine NHS ester) (from UniProt P50591 114-281) (ligand)
- percent of r-TRAIL bound onto the membrane [1]: 80%

Substance: His-ILZ-TRAIL (residues 114-281) (from UniProt P50591 114-281) (ligand)
- apoptosis ratio, Annexin V-FITC/PI flow cytometry, MDA-MB-231 cells, 12 h, free TRAIL 2 ng/mL [2]: 36.5%
- apoptosis ratio, Annexin V-FITC/PI flow cytometry, MDA-MB-231 cells, 12 h, free TRAIL 20 ng/mL [2]: 51.7%
- viability, Annexin V-FITC/PI flow cytometry, MDA-MB-231 cells, 12 h, free TRAIL 20 ng/mL [2]: 32.3%
